Assay results from PMC11508082 (PLOS Pathogens, 2024).

Molecular target: the molecule itself
Assay: SDS-PAGE and anti-6xHis immunoblot of Ni-affinity elution fractions

B1: 6xHis tagged PdhR (natural protein)
chain: MAYSKIRQPKLSDVIEQQLEFLILEGTLRPGEKLPPERELAKQFDVSRPSLREAIQRLEAKGLLLRRQGGGTFVQSSLWQSFSDPLVELLSDHPESQYDLLETRHALEGIAAYYAALRSTDEDKERIRELHHAIELAQQSGDLDAESNAVLQYQIAVTEAAHNVVLLHLLRCMEPMLAQNVRQNFELLYSRREMLPLVSSHRTRIFEAIMAGKPEEAREASHRHLAFIEEILLDRSREESRRERSLRRLEQRKN
notes: also called PdhR-his; recombinant PdhR-his; source: E. coli BL21 DE3 (pET21a(+)), purified (Ni2+ chelating column, HisTrap)
stoichiometry N: 2
